Measured values taken from publication PMC7380489 (NAR Cancer, 2020).

B1: human TRIM28 RBCC domain R184D (domain or fragment)
chain: CGVCRERLRPEREPRLLPCLHSACSACLGPAAPAAANSSGDGGAAGDGTVVDCPVCKQQCFSKDIVENYFMRDSGSKAATDAQDANQCCTSCEDNAPATSYCVECSEPLCETCVEAHQDVKYTKDHTVRSTGPAKSRDGERTVYCNVHKHEPLVLFCESCDTLTCRDCQLNAHKDHQYQFLEDAVRNQRKLLASLVKRLGDKHATLQKSTKEVRSSIRQVSDVQKRVQVDVKMAILQIMKELNKRGRVLVNDAQKVTEGQQERLERQHWTMTKIQKHQEHILRFASWALESDNNTALLLSKKLIYFQLHRAL

Assays:
[1] = target: the molecule itself; test: AUC
[2] = target: B1; test: AUC

Binder	stoichiometry N [1]	stoichiometry N [2]
B1	2	–
mouse ZFP568 residues 1-105 containing the first KRAB domain (1K) (domain or fragment) not shown	–	2 RBCC chains per 1K (2:1)
